Reference: patent US9040266B2, “Cell-based systems for production of methyl formate” (The Regents of the University of California, priority 2009, dated 2015)

Tested on: methyl bromide and methyl iodide production in E. Coli
Experiment: Methyl halide production by heterologous MHTs expressed in E. coli (Example 8, headspace GC/MS)
Format: cell-based
Details: FIG. 7; for methyl bromide production / methyl iodide production: 165 mM NaX, 100 uM IPTG, 1.5 hours
Procedure: Nineteen methyl halide transferase genes from various organisms were codon-optimized and introduced into E. Coli. Production of methyl bromide and methyl iodide was determined for each. […] Group II UBA; Cryptococcus neoformans var. neoformans JEC21; Oryza sativa (japonica cultivar-group); Ostreococcus tauri; Dechloromonas aromatica RCB; Coprinopsis cinerea okayama; Robiginitalea bofirmata HTCC2501; Maricaulis maris MCS10; Flavobacteria bacterium BBFL7; Vitis vinifera and; halorhodospira halophila SL1.
For each strain a single colony was picked and grown overnight (10-14 hrs) in 20 mL of LB miller in a 30 mL glass test tube with aeration (a loose cap) at 37 C and 250 rpm shaking. The culture was spun down in a swinging bucket centrifuge for 5 min @ 3000×g. The cells were resuspended in 20mL of appropriate media (10 g/L Tryptone, 5 g/L Yeast Extract, 165 mM NaX [where X=CI, Br, I]) containing 100 uM IPTG inducer. The cells were sealed with rubber stoppers and parafilm and grown at 37 C with 250 rpm shaking for 1.5 hours. Cultures were taken to the GC/MS and 100 uL of headspace gas was sampled and loaded onto the column. The method run was VOIGT.m. The number of counts for the appropriate mass (MeCl, MeBr, MeI) were reported. Cells were always grown in the presence of 30 ug/mL chloramphenicol.
Methyl halide production was measured as described in the previous Examples. […] C. neoformans JEC21 gave the best methyl bromide and methyl iodide production. Leptospirillum gave the best methyl iodide production.

| Molecule | halide specificity of methyl halide production | methyl halide transferase activity | also measured |
| --- | --- | --- | --- |
| C. cinerea: methyl halide transferase (hypothetical protein) from Coprinopsis cinerea okayama, SEQ ID NO: 16 (protein, Synthetic polypeptide of hypothetical protein of coprinopsis cinerea.) MADPNLAPEIRAKMQEIFKPDDRHSWDLLWKENITPWDAGDAQPSLIELIEESGLDFARKGRALVPGCGTGYDAVYLASALGLQTIGMDISESAVEAANRYRDSSGVQGADRAIFQKADFFTYKVPDEERFDLIMDHTFFCAIHPSLRPEWGQRMSELIKPGGYLITICFPMIPKVETGPPYYLRPEHYDEVLKETFEKVYDKVPTKSSENHKDKERMLVWKKK | significant specificity for methyl iodide production |  |  |
| Brassica rapa subsp. chinensis: methyl halide transferase from Brassica rapa subsp. chinensis, SEQ ID NO: 6 (protein, listed as Brassica rapa) MAEVQQNSAHINGENIIPPEDVAKFLPKTVEEGGWEKCWEDGVTPWDQGRATPLVVHLVESSSLPLGRALVPGCGGGHDVVAMASPERYVVGLDISESALEKAAETYGSSPKAKYFTFVKEDFFTWRPNELFDLIFDYVVFCAIEPETRPAWAKAMYELLKPDGELITLMYPITDHDGGPPYKVAFSTYEDVLVPVGFKAVSIEENPYSIATRKGKEKLARWKKIN | significant specificity for methyl bromide production |  |  |
| RB: methyl halide transferase from Robiginitalea bofirmata HTCC2501, SEQ ID NO: 17 (protein, listed as Robiginitalea biformata) MTDLDRDFWEDRYRAGTDRWDLGGPSPPLTAYIDGLTDQELRILVPGAGRGYEAEYLYRAGFENLTIVDLARRPLDDLRRRLPELPAAALQQTDFFSFRGGPFDLILEHTFFCALPPARRPDYVQAMHRLLVPGGRLAGLFFDFPLTEDGPPFGGSETEYRNRFSSLFHIRKLERARNSIPPRAGTELFFIFEKK |  | insignificant activity |  |
| HH: methyl halide transferase from Halorhodospira halophila SL1, SEQ ID NO: 21 (protein, listed as Halorhodospira halophila) MSGDPDPRRAPWEARWREGRTGWDRGGVSPTLEAWLSAGVIPGRRVLVPGAGRGYEVEALARRGYKVTAVDIAAEACQQLRDGLDAAGVEARVVQADLLAWQPDTPFDAVYEQTCLCALDPADWPAYEQRLYGWLRPGGVLLALFMQTGASGGPPFHCALPEMATLFDSERWQWPAEPPRQWPHPSGRWEEAVRLLRR |  | insignificant activity |  |
| D. aromatica: methyl halide transferase from Dechloromonas aromatica RCB, SEQ ID NO: 15 (protein, listed as Dechloromonas aromatica) MSETIKPPEQRPEHPDFWCKRFGEGVTPWDAGKVPMAFVDFVGAQTTPLNSLIPGCGSAWEAAHLAELGWPVTALDFSPLAIEKAREVLGDSPVKLVCADFFTFAPRQPLDLIYERAFLCALPRKLWADWGKQVAELLPSGARLAGFFFLCDQPKGPPFGILPAQLDELLRPNFELIEDQPVGDSVPVFAGRERWQVWRRR | significant specificity for methyl iodide production |  |  |
| C. neoformans JEC21: methyl halide transferase (hypothetical protein) from Cryptococcus neoformans var. neoformans JEC21, SEQ ID NO: 12 (protein, Cryptococcus neoformans) MAQASGDDNAWEERWAQGRTAFDQSAAHPVFVKFLKSDIARELGVPKSGKALVPGCGRGYDVHLLASTGLDAIGLDLAPTGVEAARRWIGSQPSTSGKADILVQDFFTYDPLEKFDLIYDYTFLCALPPSLRQEWARQTTHLANIAADTNPILITLMYPLPPSAKSGGPPFALSEEIYQELLKEQGWKMVWSEDIEEPTRMVGAPGGEKLAVWKRI |  |  | methyl bromide production: best; methyl iodide production: best |
| MM: methyl halide transferase from Maricaulis maris MCS10, SEQ ID NO: 18 (protein, listed as Maricaulis maris) MTHDENRSAFDWEARFIDGNTPWERGALHPAFEAWQHQSAFAAGDRALIPGCGRSPELLALAQAGLAVTGADLSGTAMAWQRKLFADAGQQVELITGDVFDWQPQQALDLVYEQTFLCAIHPRLRTRYEEALARWLKPGGRLYALFMQKPERGGPPFDCALDAMRALFPAERWTWPAEADIQPWPHPQLNGKAELGAVLIRR |  | insignificant activity |  |
| O. tauri: methyl halide transferase (unnamed protein product) from Ostreococcus tauri, SEQ ID NO: 14 (protein, listed as Ostreococcus tauri) MTTSSAPTRHTSMRVALAAPATVTRRLGTYKRVFDRRAMSTRAIDGAVTSNAGDFARQDGSTDWEGMWSRGITKGAAFDCSRTEPAFQNALDAKEIAIGSGRALVPGCGRGYALASLARAGFGDVVGLEISETAKEACEEQLKAESIPETARVEVVVADFFAYDPKEAFDAAYDCTFLCAIDPRRREEWARKHASLIKPGGTLVCLVFPVGDFEGGPPYALTPEIVRELLAPAGFEEIELRETPAEMYARGRLEYLFTWRRRS | significant specificity for methyl iodide production |  |  |
| B. phymatum: methyl halide transferase from Burkholderia phymatum STM815, SEQ ID NO: 4 (protein, listed as Burkholderia phymatum) MSDKRPSVPPSAPDFENRDPNAPGFWDERFGRGFTPWDQAGVPPAFKAFVERHSPVPVLIPGCGSAYEARWLAEKGWTVRAIDFAPNAVEAARAQLGSHASLVHEADFFTYRPPFDPGWIYERAFLCALPPARRSDWVARMAQLLSPGGLLAGFFFIGATEKGPPFGIERAELDALMSPDFTLVEDEPVDDSIAVFAGRERWLTWRRRGAARG |  |  | methyl bromide production: best |
| O. sativa: methyl halide transferase from Oryza sativa (japonica cultivar-group), SEQ ID NO: 13 (protein, listed as Oryza sativa) MASAIVDVAGGGRQQALDGSNPAVARLRQLIGGGQESSDGWSRCWEEGVTPWDLGQRTPAVVELVHSGTLPAGDATTVLVPGCGAGYDVVALSGPGRFVVGLDICDTAIQKAKQLSAAAAAAADGGDGSSSFFAFVADDFFTWEPPEPFHLIFDYTFFCALHPSMRPAWAKRMADLLRPDGELITLMYLAEGQEAGPPFNTTVLDYKEVLNPLGLVITSIEDNEVAVEPRKGMEKIARWKRMTKSD | significant specificity for methyl iodide production |  |  |
| FB: methyl halide transferase from Flavobacteria bacterium BBFL7, SEQ ID NO: 19 (protein, listed as Flavobacteria bacterium) MPLNKQYWEDRYKNNSTGWDLGIISTPIKEYVNQLENKNSKILIPGAGNAHEATYLVKNGFKNIFILDIALSPLKFAKQRSKLPEEHLIQQDFFDHKGSYDLIIEQTFFCALEPRFRESYVKKIHMLLRDQGCLIGVLFNFENNLSSPPFGGSINEYLNLFEPYFEIVTMEPCNNSVIERQGKEIFIKLKKKK |  | insignificant activity |  |
| AT-2: methyl halide transferase from Arabidopsis thaliana TM2, SEQ ID NO: 10 (protein, listed as Arabidopsis thaliana) MAEEQQNSDQSNGGNVIPTPEEVATFLHKTVEEGGWEKCWEEEITPWDQGRATPLIVHLVDTSSLPLGRALVPGCGGGHDVVAMASPERFVVGLDISESALAKANETYGSSPKAEYFSFVKEDVFTWRPTELFDLIFDYVFFCAIEPEMRPAWAKSMYELLKPDGELITLMYPITDHVGGPPYKVDVSTFEEVLVPIGFKAVSVEENPHAIPTRQREAGKVEEDQLIPKKEILLFGKSVICVIYKE |  | insignificant activity |  |
| VV: methyl halide transferase from Vitis vinifera, SEQ ID NO: 20 (protein, listed as Vitis vinifera) MASPDNTKPKARSSESVTGQRRGRRPSDRHWPCVGEESGSFYNTIADGERQYQHRIELRASKNKPSSWEEKWQQGLTPWDLGKATPIIEHLHQAGALPNGRTLIPGCGRGYDVVAIACPERFVVGLDISDSAIKKAKESSSSSWNASHFIFLKADFFTWNPTELFDLIIDYTFFCAIEPDMRPAWASRMQQLLKPDGELLTLMFPISDHTGGPPYKVSIADYEKVLHPMRFKAVSIVDNEMAIGSRKKKYPLKPDLSLFGFVDRPKRAYEARSEEFRISDWVCGWMGLCVPSGRISGGVCGLLSGRSLTWAKNLGVSTTQLRMSNNGSSIESNPKVQKLNQIIGSDSAGGWEKSWQQGHTPWDLGKPTPIIQHLHQTGTLPSGKTLVPGCGCGYDVVTIACPERFVVGLDISDSAIKKAKEISDHAGGPPYKVSVADYEEVLHPMGFKAVSIVDNKMAIGPRKGREKLGRWKRTPSKSLL |  | insignificant activity |  |
| Leptospirillum: methyl halide transferase from Leptospirillum sp. Group II UBA, SEQ ID NO: 11 (protein, Leptospirillum species, synthetic polypeptide of methyl halide transferase thereof) MPDKIFWNQRYLDKNTGWDLGQPAPPFVRLVEKGEFGPPGRVLIPGAGRSYEGIFLASRGYDVTCVDFAPQAVREAREAARQAGVKLTVVEEDFFRLDPRTIGVFDYLVEHTCFCAIDPPMRQAYVDQSHALLAPGGLLIGLFYAHGREGGPPWTTTEEEVRGLFGKKFDLLSLGLTDWSVDSRKGEELLGRLRRKNDRIE |  |  | methyl iodide production: best |
